Measurements published in patent US20240141038A1 (SHANGHAI QILU PHARMACEUTICAL RESEARCH AND DEVELOPMENT CENTRE, published 2024).

B1: NKp46-PA45 VHH (his and c-Myc labels) (VHH)
VHH: QVQLVESGGGLVQAGGSLRLLCAASGRTFSRLPMAWFRQGPGKDREFVAAISWSGGSTYYADSMKGRFTISRDNAKNTAYLQMNSLRLEDTAVYYCAAVGDSAPYSATIVYTDARAYAYWGQGTQVTVSS
notes: IPTG-induced E. coli supernatant used in the screening ELISA; also called NKp46-PA45 clone supernatant; not shown: his and c-Myc labels
B2: NKp46-PA34 VHH (his and c-Myc labels) (VHH)
VHH: QVQLVESGGGLVQTGGSLRLSCAASGSTSSFYRMGWFRQAPGKEREAVARISSSAGLIYYVDSVKGRFTISRAGAKNTVYLQMNSLKPEDTAVYYCAADRHGTRWDYWGQGTQVTVSS
notes: IPTG-induced E. coli supernatant used in the screening ELISA; also called NKp46-PA34 clone supernatant; not shown: his and c-Myc labels
B3: NKp46-PC3 VHH (his and c-Myc labels) (VHH)
VHH: DVQLVESGGGSVEAGGSLRLSCAASGYRQRTMGWFRQAPGKAREGVACIYTGPTTTFTDYADSVKGRFTITQDNAKNTVYLQMNSLKPEDTAMYYCAANLAYPLTIIPDTRWGQGTQVTVSS
notes: IPTG-induced E. coli supernatant used in the screening ELISA; also called NKp46-PC3 clone supernatant; not shown: his and c-Myc labels
B4: NKp46-PA36 VHH (his and c-Myc labels) (VHH)
VHH: QVQLVESGGGLVQAGGSLRLSCAASGRSFSRYAMGWFRQAPGKERDFVAAISSSGDPTYYADSVKGRFTISRVNAKNTVYLQMNSVNPGDTAVYYCAAGLTARDTTVVVHPNGYSYWGQGTQVTVSS
notes: IPTG-induced E. coli supernatant used in the screening ELISA; also called NKp46-PA36 clone supernatant; not shown: his and c-Myc labels
B5: NKp46-PC1 VHH (his and c-Myc labels) (VHH)
VHH: QVQLVESGGGSVQAGGSLTLSCATSGYTYRTDCMGWFRQAPGKEREGLATIYTSDGRTDYANSVKGRFTISQDNAKNTLYLHMNNLKPEDTAIYYCAADPQYGGVCPSGGWNYWGQGTQVTVSS
notes: IPTG-induced E. coli supernatant used in the screening ELISA; also called NKp46-PC1 clone supernatant; not shown: his and c-Myc labels
B6: NKp46-PC7 VHH (his and c-Myc labels) (VHH)
VHH: EVQLVESGGGSVQAGGSLRLSCAASGYTYRTDCMGWFRQAPGKEREGLATIYTSDGRTAYADSVKGRFTISQDNAKNTLYLDMNTLKPEDTAMYYCAADLQYGGSCPSGGWKYWGQGTLVTVSS
notes: IPTG-induced E. coli supernatant used in the screening ELISA; also called NKp46-PC7 clone supernatant; not shown: his and c-Myc labels
B7: NKp46-PA31 VHH (his and c-Myc labels) (VHH)
VHH: DVQLVESGGGLVQAGDSLRLSCAVSGRTFSRLPMGWFRQGPGKDREFVAAISWSSSTTYYADSVKGRFFISRDNAKNTAYLQMNNLRLEDTAVYYCAAVGGSLDYSATVVYTAARAYADWGQGTLVTVSS
notes: IPTG-induced E. coli supernatant used in the screening ELISA; also called NKp46-PA31 clone supernatant; not shown: his and c-Myc labels
B8: NKp46-PC12 VHH (his and c-Myc labels) (VHH)
VHH: QVQLVESGGGSVQTGGSLRLSCTAPGFTTDSCGMDWYRQAAGKQREWVSRIRPDGRTDYVESVKGRFTISEDKAKYTVYLQMNSLKPEDTAMYSCTTWGLCTAKFRWGQGTQVTVSS
notes: IPTG-induced E. coli supernatant used in the screening ELISA; also called NKp46-PC12 clone supernatant; not shown: his and c-Myc labels
B9: NKp46-PC8 VHH (his and c-Myc labels) (VHH)
VHH: EVQLVESGGGSVQAGGSLRLSCAVSRGSMASTGCMAWFRQTPGKEREAVAIINISGTTRYTDSVKGRFTIAQDSAKNTLTLQMNSLKPEDTGMYYCAATQNPRTVGRGYCTGDYFQVGGGGYSFWGQGTQVTVSS
notes: IPTG-induced E. coli supernatant used in the screening ELISA; also called NKp46-PC8 clone supernatant; not shown: his and c-Myc labels
B10: NKp46-PC16 VHH (his and c-Myc labels) (VHH)
VHH: DVQLVESGGGLVQPGGSLRLSCAISGFTFSIVSMSWVRQAPGKGPERVSWINGDSSNTSYADSVKGRFTISRDNARNMLYLQMNSLKSEDTARYYCTTQNSHYDIRFGYWGQGTQVTVSS
notes: IPTG-induced E. coli supernatant used in the screening ELISA; also called NKp46-PC16 clone supernatant; not shown: his and c-Myc labels
B11: NKp46-PC4 VHH (his and c-Myc labels) (VHH)
VHH: EVQLVESGGGSVQAGGSLRLSCTVSGYTGTIEYMGWGWFRQAPGKEREGVAYINTGGGTSVYDDSVKGRFTISKDDVNLTVYLQMNSLKPEDTAIYYCATGSFFGIWYKVPATQYFHYWGQGTQVTVSS
notes: IPTG-induced E. coli supernatant used in the screening ELISA; also called NKp46-PC4 clone supernatant; not shown: his and c-Myc labels
B12: NKp46-PA63 VHH (his and c-Myc labels) (VHH, not shown: small tags and cut ends)
VHH: EVQLVESGGGLVQPGGSLRLSCAASGRTSTSYAMGWFRQAPGKEREFVAAINRSGDFPYYADSVKGRFTIFRDNAKNTVYLQMSSVKPEDTGVYFCAAAPRAPATQVVISAFGYEYWGQGTQVTVSS
notes: also called NKp46-PA63 clone supernatant
B13: NKp46-PA40 VHH (his and c-Myc labels) (VHH)
VHH: QVQLVESGGGLVQAGGSLRLSCAASGRTFSRYSMGWFRQAPGKEREFVAAISSSGDVTHYADSAKGRFIISRDNAKNTVSLQVNSVNLEDTAVYYCAASLTARATTVTVHPNGYNYWGQGTQVTVSS
notes: IPTG-induced E. coli supernatant used in the screening ELISA; also called NKp46-PA40 clone supernatant; not shown: his and c-Myc labels
B14: NKp46-PA2 VHH (his and c-Myc labels) (VHH)
VHH: DVQLVESGGGLVQAGGSLRLSCAASGRTLSSYAMGWFRQAPGLEREFVAAISRISGDTYSPDSVKGRFTISRDNAKNTLYLQMNSLKPEDTAVYYCAASATPSATNIYTNQYAYGDWGQGTQVTVSS
notes: IPTG-induced E. coli supernatant used in the screening ELISA; also called NKp46-PA2 clone supernatant; not shown: his and c-Myc labels
B15: NKp46-PC13 VHH (his and c-Myc labels) (VHH)
VHH: DVQLVESGGGSVQAGGSLRLSCAASGYTRSIYYMGWFRQAPGKEREGVAVMHTGGGSTYYTDSVKGRFTISQDNAKNTVYLQMNSLKPEDTAMYYCAASKYLLAFGGVEWILRPAGGWDYWAQGTQVTVSS
notes: IPTG-induced E. coli supernatant used in the screening ELISA; also called NKp46-PC13 clone supernatant; not shown: his and c-Myc labels
B16: NKp46-PC6 VHH (his and c-Myc labels) (VHH)
VHH: DVQLVESGGGSVQAGGSLRLSCAASGYRSRHYCMGWFRQFPGKERERVALINTGGPTTFYADFVEGRFTISLDNAKNTLSLQMNSLKPEDTAMYYCAAGPPSSDSGSGCYVPEYMYNYWGQGTQVTVSS
notes: IPTG-induced E. coli supernatant used in the screening ELISA; also called NKp46-PC6 clone supernatant; not shown: his and c-Myc labels
B17: NKp46-PA69 VHH (his and c-Myc labels) (VHH)
VHH: QVQLVESGGGLIQAGGSLRLSCVASERSLTLYAMGWFRQAPGLEREFVAGISRTGDTTYSPDSVKGRFTISRDNAKNVLYLQMNSLKPDDTAVYYCAASATYSATNIYTHQRAYGDWGQGTQVTVSS
notes: IPTG-induced E. coli supernatant used in the screening ELISA; also called NKp46-PA69 clone supernatant; not shown: his and c-Myc labels
B18: NKp46-PC9 VHH (his and c-Myc labels) (VHH)
VHH: QVQLVESGGGSVQAGGSLRLSCAASGYTYRRYCMAWFRQGPGKEREGVACLDRDGSTTYADSVKGRFTISRDNANDTLYLQMNSLKPEDTALYRCAAAQPGDCWGRRYGFNTWGQGTLVTVSS
notes: IPTG-induced E. coli supernatant used in the screening ELISA; also called NKp46-PC9 clone supernatant; not shown: his and c-Myc labels
B19: NKp46-PC11 VHH (his and c-Myc labels) (VHH)
VHH: DVQLVESGGGSVQAGGSLRLSCAPSPYSANSFSMAWFRQVPGKEREGIACIQAESGSTNVAPSVKGRFSISQDNAKNTLYLQMNNLKPEDTAMYYCAAFKRNVGGCELRPEHWRFWGQGTLVTVSS
notes: IPTG-induced E. coli supernatant used in the screening ELISA; also called NKp46-PC11 clone supernatant; not shown: his and c-Myc labels

Assays:
[1] = molecular target: T1, Human NKp46 antigen for immunization, screening, and testing (Kactus, NKP-HM146) (human, UniProt O76036 22-255); assay: ELISA, coated antigen, VHH supernatant, anti-Myc HRP
T1 construct: Bought protein; also called human NKp46 antigen protein; human NKp46 protein
T1 sequence (O76036 other isoform, or with tags, fused parts or gaps limits assumed): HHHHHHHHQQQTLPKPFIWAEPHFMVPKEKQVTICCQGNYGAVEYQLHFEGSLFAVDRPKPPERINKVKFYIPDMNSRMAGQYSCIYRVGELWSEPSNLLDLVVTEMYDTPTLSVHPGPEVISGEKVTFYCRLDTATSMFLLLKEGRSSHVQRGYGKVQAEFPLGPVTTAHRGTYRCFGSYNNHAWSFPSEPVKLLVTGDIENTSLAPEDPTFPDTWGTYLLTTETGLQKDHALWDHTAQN
Description: (§1) In order to obtain positive antibodies that can cross-bind to human NKp46 and cynomolgus monkey NKp46, the above libraries were amplified and added into M13K07 helper phage and assembled into bacteriophages. 1×10¹² pfu of immune camel antibody library and immune alpaca antibody library were added thereto, and the phages were incubated with biotinylated human NKp46 protein (8 μg/mL) bound to magnetic beads for 1 h at room temperature. After washing off the unbound bacteriophages with 0.05% PBST, the phages specifically bound to NKp46 were eluted with […] triethylamine, and after gradient dilution of the bacteriophages above, E. coli SS320 in the logarithmic growth phase were infected. After being cultured overnight at 37° C. on plates containing ampicillin, single-clone was picked for IPTG-induced expression, and the supernatant was used for ELISA assay. ELISA plates were coated with […] human NKp46 antigen or cynomolgus monkey NKp46 antigen overnight at 4° C., then washed 3 times with 0.05% PBST and blocked with 5% skim milk at room temperature for 1 h, and washed 3 times with 0.05% PBST. Then 30 µL of induced supernatant was then added into per well, medium were added to negative control wells, the ELISA plates were incubated at room temperature for 1 h, and finally detected with anti-Myc HRP (VHH with his and c-Myc labels were expressed by the induction of IPTG. Sequence clones that had OD450 values of greater than 1.0 for binding to human NKp46 and cynomolgus monkey NKp46 as determined by ELISA, and of which the ratio of OD450 values to that of negative control were greater than 3 were sequenced, thereby obtaining amino acid sequences of 30 variable regions of heavy chain antibodies disclosed in the present disclosure, as shown in Table 2.

[2] = molecular target: T2, Cynomolgus monkey NKp46 for immunization, screening, and testing (Kactus, NKP-CM146) (cynomolgus monkey, UniProt Q95JB9 22-254); assay: as above
T2 construct: Bought protein; also called monkey NKp46 antigen protein; cynomolgus monkey NKp46 antigen
T2 sequence (Q95JB9 other isoform, or with tags, fused parts or gaps limits assumed): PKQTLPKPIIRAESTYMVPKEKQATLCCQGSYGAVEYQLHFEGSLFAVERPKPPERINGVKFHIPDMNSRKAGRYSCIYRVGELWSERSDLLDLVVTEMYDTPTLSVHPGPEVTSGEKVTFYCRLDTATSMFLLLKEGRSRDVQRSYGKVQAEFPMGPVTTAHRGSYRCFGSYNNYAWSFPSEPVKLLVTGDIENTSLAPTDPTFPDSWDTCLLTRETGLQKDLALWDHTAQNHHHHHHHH
Description: as §1

Binder	OD450 [1]	ratio of OD450 to negative control [1]	OD450 [2]	ratio of OD450 to negative control [2]
B1	> 1	> 3	> 1	> 3
B2	> 1	> 3	> 1	> 3
B3	> 1	> 3	> 1	> 3
B4	> 1	> 3	> 1	> 3
B5	> 1	> 3	> 1	> 3
B6	> 1	> 3	> 1	> 3
B7	> 1	> 3	> 1	> 3
B8	> 1	> 3	> 1	> 3
B9	> 1	> 3	> 1	> 3
B10	> 1	> 3	> 1	> 3
B11	> 1	> 3	> 1	> 3
B12	> 1	> 3	> 1	> 3
B13	> 1	> 3	> 1	> 3
B14	> 1	> 3	> 1	> 3
B15	> 1	> 3	> 1	> 3
B16	> 1	> 3	> 1	> 3
B17	> 1	> 3	> 1	> 3
B18	> 1	> 3	> 1	> 3
B19	> 1	> 3	> 1	> 3
